Reference: PMC3900769 (Journal of molecular biology, 2009)
Where “and” joins values, the source holds several entries; their conditions need not be identical. Equal entries are not always repeated.

Columns and labels:
[1] = target: HPV11 MBP-E6 4C/4S (human papillomavirus type 11) (UniProt P04019); assay: SEC
[2] = target: HPV11 E6 4C/4S separated from the MBP tag (human papillomavirus type 11) (UniProt P04019); assay: SEC
[3] = target: E6AP peptide (Homo sapiens) (UniProt Q05086); assay: SPR; details: cited from earlier work
Chain of E6AP peptide (Homo sapiens) (Q05086 whole entry): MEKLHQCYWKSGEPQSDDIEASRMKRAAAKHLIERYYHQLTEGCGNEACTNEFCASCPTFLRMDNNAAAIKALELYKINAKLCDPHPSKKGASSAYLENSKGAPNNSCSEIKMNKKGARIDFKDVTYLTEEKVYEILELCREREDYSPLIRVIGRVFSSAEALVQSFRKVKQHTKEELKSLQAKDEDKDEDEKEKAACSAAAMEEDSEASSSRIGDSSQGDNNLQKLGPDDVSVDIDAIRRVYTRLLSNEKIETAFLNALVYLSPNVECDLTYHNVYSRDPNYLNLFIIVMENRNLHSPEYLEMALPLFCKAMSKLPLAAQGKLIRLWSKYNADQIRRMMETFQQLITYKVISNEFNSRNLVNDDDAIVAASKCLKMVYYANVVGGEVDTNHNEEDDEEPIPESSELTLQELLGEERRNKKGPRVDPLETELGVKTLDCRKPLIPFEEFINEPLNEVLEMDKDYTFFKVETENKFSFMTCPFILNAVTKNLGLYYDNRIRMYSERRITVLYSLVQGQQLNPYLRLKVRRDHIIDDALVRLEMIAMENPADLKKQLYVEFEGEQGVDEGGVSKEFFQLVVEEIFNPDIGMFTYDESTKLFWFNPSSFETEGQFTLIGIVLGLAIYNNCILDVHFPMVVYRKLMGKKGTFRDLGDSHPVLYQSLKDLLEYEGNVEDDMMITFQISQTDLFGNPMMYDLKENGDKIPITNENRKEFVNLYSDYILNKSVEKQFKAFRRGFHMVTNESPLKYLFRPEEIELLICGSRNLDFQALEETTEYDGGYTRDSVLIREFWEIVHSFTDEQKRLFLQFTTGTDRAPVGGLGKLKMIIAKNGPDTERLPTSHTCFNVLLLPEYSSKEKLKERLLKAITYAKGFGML

[4] = target: the molecule itself; assay: SEC

HPV11 MBP-E6 4C/4S (from UniProt P04019 1-150) (natural protein)
stoichiometry N [1]: 2 and 3

HPV11 E6 4C/4S separated from the MBP tag (from UniProt P04019 1-150) (natural protein)
stoichiometry N [2]: 3 and 2

HPV18 E6 (from UniProt P06463)
Kd [3]: 30 µM

B1: wild-type HPV11 MBP-E6 (natural protein)
chain: MESKDASTSATSIDQLCKTFNLSLHTLQIQCVFCRNALTTAEIYAYAYKNLKVVWRDNFPFAACACCLELQGKINQYRHFNYAAYAPTVEEETNEDILKVLIRCYLCHKPLCEIEKLKHILGKARFIKLNNQWKGRCLHCWTTCMEDLLP
stoichiometry N [4]: 2

B2: wild-type BPV1 MBP-E6 (natural protein)
chain: MDLKPFARTNPFSGLDCLWCREPLTEVDAFRCMVKDFHVVIREGCRYGACTICLENCLATERRLWQGVPVTGEEAELLHGKTLDRLCIRCCYCGGKLTKNEKHRHVLFNEPFCKTRANIIRGRCYDCCRHGSRSKYP
binding result [4]: binds
